B1: Myc-IE1 1–382 5x mut (domain or fragment, human cytomegalovirus, UniProt P13202 1-382, looked up)
chain: MESSAKRKMDPDNPDEGPSSKVPRPETPVTKATTFLQTMLRKEVNSQLSLGDPLFPELAEESLKTFEQVTEDCNENPEKDVLAELVKQIKVRVDMVRHRIKEHMLKKYTQTEEKFTGAFNMMGGCLQNALDILDKVHEPFEEMKCIGLTMQSMYENYIVPEDKREMWMACIKELHDVSKGAANKLGGALQAKARAKKDELRRKMMYMCYRNIEFFTKNSAFPATTNGCSQAMAALQALPQCSPDEIMAYAQKIFKILDEERDKVLTHIDHIFMDILTTCVETMCAEYKVTSDACMATMYGGISLLSEFCAVLCCYVLEETSVMLAKRPLITKPEVISVMKRRIEEICMKVFAQYILGADPLRVCSPSVDDLRAIAEESDEEE

Key:
FLAG-FEN1 (full length) [1] = molecular target: FLAG-FEN1 (full length) (UniProt P39748)
Sequence of FLAG-FEN1 (full length) (UniProt P39748) (P39748 whole entry): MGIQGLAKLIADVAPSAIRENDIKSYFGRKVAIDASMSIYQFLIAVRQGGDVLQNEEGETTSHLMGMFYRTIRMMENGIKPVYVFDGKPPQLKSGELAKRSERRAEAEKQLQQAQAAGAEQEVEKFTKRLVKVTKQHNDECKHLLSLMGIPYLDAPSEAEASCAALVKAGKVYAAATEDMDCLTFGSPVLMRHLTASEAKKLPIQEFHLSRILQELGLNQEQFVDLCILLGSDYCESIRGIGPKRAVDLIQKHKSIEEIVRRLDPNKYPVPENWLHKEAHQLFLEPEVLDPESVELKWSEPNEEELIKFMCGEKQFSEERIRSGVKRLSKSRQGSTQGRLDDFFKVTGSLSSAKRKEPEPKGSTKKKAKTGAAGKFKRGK

FLAG-FEN1 (full length) [2] = molecular target: FLAG-FEN1 (full length) (UniProt P39748 1-380); assay: cell-based or functional assay
Sequence of FLAG-FEN1 (full length) (UniProt P39748 1-380) (P39748 whole entry): as above

| Molecule | normalized pFEN1 (Ser187)/FEN1 ratio by densitometry of Western blots, 293T cells transfected with FLAG-FEN1 and untagged IE1 wt (FEN1 alone set to 1) (FLAG-FEN1 (full length) [1]) | normalized pFEN1 (Ser187)/FEN1 ratio by densitometry of Western blots, 293T cells transfected with FLAG-FEN1 and full-length IE1 5x mut (FEN1 alone set to 1) (FLAG-FEN1 (full length) [2]) |
| --- | --- | --- |
| HCMV immediate early protein 1 (IE1) expressed in AD169-infected cells (natural protein) | 2.4 | – |
| B1 | – | 1.5 ratio |

Reference: article PMC8026080, “Functional regulation of the structure-specific endonuclease FEN1 by the human cytomegalovirus protein IE1 suggests a role for the re-initiation of stalled viral replication forks” (PLoS Pathogens, 2021)
